Data published in US20240058467A1 (SUTRO BIOPHARMA, published 2024).
Read-outs that look alike come from different tables or passages of the source.

Key:
Test in all cases: cell-based or functional assay
[1] = biological target: human ROR1 (hROR1) (human, UniProt Q01973 30-937)
[2] = biological target: T1, ROR1 antigen expressed on ROR1 positive Ntera-2 cells (UniProt Q01973 30-937)
[3] = biological target: T1, ROR1 antigen expressed on ROR1 positive …; remark: listed apart in the source
[4] = biological target: T1, ROR1 antigen expressed on ROR1 positive …; remark: listed apart in the source

Row | Binder | NTERA-2 cell killing EC50 [1] [nM] | NTERA-2 cell killing Span [1] [%] | NTERA-2 cell killing EC50 [2] [nM] | NTERA-2 cell killing Span (%) [2] [%] | also measured
1 | Conjugate 4 (2188-D04-Y180/F404/K42/E161-LP1) (antibody, human IgG1, kappa, pAMF in place of K42 and E161, printed '*', conjugated to LP1; pAMF in place of Y180 and F404 (EU), printed '*', conjugated to LP1) heavy: MEVQLVESGGGLVQPGGSLRLSCAASGFNISDYDIHWVRQAPGKGLEWVGGIDPADGSTDYADSVKGRFTISADTSKNTAYLQMNSLRAEDTAVYYCARDYGVYDYWGQGTLVTVSSASTKGPSVFPLAPSSKSTSGGTAALGCLVKDYFPEPVTVSWNSGALTSGVHTFPAVLQSSGLSLSSVVTVPSSSLGTQTYICNVNHKPSNTKVDKKVEPKSCDKTHTCPPCPAPELLGGPSVFLFPPKPKDTLMISRTPEVTCVVVDVSHEDPEVKFNWYVDGVEVHNAKTKPREEQYNSTYRVVSVLTVLHQDWLNGKEYKCKVSNKALPAPIEKTISKAKGQPREPQVYTLPPSREEMTKNQVSLTCLVKGFYPSDIAVEWESNGQPENNYKTTPPVLDSDGSFLYSKLTVDKSRWQQGNVFSCSVMHEALHNHYTQKSLSLSPGK light: MDIQMTQSPSSLSASVGDRVTITCRASQDVNTAVAWYQQKPGAPKLLIYSASFLYSGVPSRFSGSRSGTDFTLTISSLQPEDFATYYCQQHYTTPPTFGQGTKVEIKRTVAAPSVFIFPPSDEQLKSGTASVVCLLNNFYPREAKVQWKVDNALQSGNSQSVTEQDSKDSTYSLSSTLTLSKADYEKHKVYACEVTHQGLSSPVTKSFNRGEC | 0.022 | 63 |  |  | 
2 | Conjugate 15: D04-Y180/F404/K42/E161-LP13 (antibody, human IgG1, kappa, pAMF at K42 and E161 (printed * in the sequence), linked to LP13; pAMF at Y180 and F404 (printed * in the sequence), linked to LP13) heavy: MEVQLVESGGGLVQPGGSLRLSCAASGFNISDYDIHWVRQAPGKGLEWVGGIDPADGSTDYADSVKGRFTISADTSKNTAYLQMNSLRAEDTAVYYCARDYGVYDYWGQGTLVTVSSASTKGPSVFPLAPSSKSTSGGTAALGCLVKDYFPEPVTVSWNSGALTSGVHTFPAVLQSSGLSLSSVVTVPSSSLGTQTYICNVNHKPSNTKVDKKVEPKSCDKTHTCPPCPAPELLGGPSVFLFPPKPKDTLMISRTPEVTCVVVDVSHEDPEVKFNWYVDGVEVHNAKTKPREEQYNSTYRVVSVLTVLHQDWLNGKEYKCKVSNKALPAPIEKTISKAKGQPREPQVYTLPPSREEMTKNQVSLTCLVKGFYPSDIAVEWESNGQPENNYKTTPPVLDSDGSFLYSKLTVDKSRWQQGNVFSCSVMHEALHNHYTQKSLSLSPGK light: MDIQMTQSPSSLSASVGDRVTITCRASQDVNTAVAWYQQKPGAPKLLIYSASFLYSGVPSRFSGSRSGTDFTLTISSLQPEDFATYYCQQHYTTPPTFGQGTKVEIKRTVAAPSVFIFPPSDEQLKSGTASVVCLLNNFYPREAKVQWKVDNALQSGNSQSVTEQDSKDSTYSLSSTLTLSKADYEKHKVYACEVTHQGLSSPVTKSFNRGEC |  |  | 0.072 |  | 
3 | Conjugate 16: D04-Y180/F404/K42/E161-LP34 (antibody, human IgG1, kappa, pAMF at K42 and E161 (printed * in the sequence), linked to LP34; pAMF at Y180 and F404 (printed * in the sequence), linked to LP34) heavy: MEVQLVESGGGLVQPGGSLRLSCAASGFNISDYDIHWVRQAPGKGLEWVGGIDPADGSTDYADSVKGRFTISADTSKNTAYLQMNSLRAEDTAVYYCARDYGVYDYWGQGTLVTVSSASTKGPSVFPLAPSSKSTSGGTAALGCLVKDYFPEPVTVSWNSGALTSGVHTFPAVLQSSGLSLSSVVTVPSSSLGTQTYICNVNHKPSNTKVDKKVEPKSCDKTHTCPPCPAPELLGGPSVFLFPPKPKDTLMISRTPEVTCVVVDVSHEDPEVKFNWYVDGVEVHNAKTKPREEQYNSTYRVVSVLTVLHQDWLNGKEYKCKVSNKALPAPIEKTISKAKGQPREPQVYTLPPSREEMTKNQVSLTCLVKGFYPSDIAVEWESNGQPENNYKTTPPVLDSDGSFLYSKLTVDKSRWQQGNVFSCSVMHEALHNHYTQKSLSLSPGK light: MDIQMTQSPSSLSASVGDRVTITCRASQDVNTAVAWYQQKPGAPKLLIYSASFLYSGVPSRFSGSRSGTDFTLTISSLQPEDFATYYCQQHYTTPPTFGQGTKVEIKRTVAAPSVFIFPPSDEQLKSGTASVVCLLNNFYPREAKVQWKVDNALQSGNSQSVTEQDSKDSTYSLSSTLTLSKADYEKHKVYACEVTHQGLSSPVTKSFNRGEC |  |  | > 10 | < 10 | 
4 | Conjugate 7 (2188-D04-Y180/F404/K42/E161-LP10) (antibody, human IgG1, kappa, pAMF in place of K42 and E161, printed '*', conjugated to LP10; pAMF in place of Y180 and F404 (EU), printed '*', conjugated to LP10) heavy: MEVQLVESGGGLVQPGGSLRLSCAASGFNISDYDIHWVRQAPGKGLEWVGGIDPADGSTDYADSVKGRFTISADTSKNTAYLQMNSLRAEDTAVYYCARDYGVYDYWGQGTLVTVSSASTKGPSVFPLAPSSKSTSGGTAALGCLVKDYFPEPVTVSWNSGALTSGVHTFPAVLQSSGLSLSSVVTVPSSSLGTQTYICNVNHKPSNTKVDKKVEPKSCDKTHTCPPCPAPELLGGPSVFLFPPKPKDTLMISRTPEVTCVVVDVSHEDPEVKFNWYVDGVEVHNAKTKPREEQYNSTYRVVSVLTVLHQDWLNGKEYKCKVSNKALPAPIEKTISKAKGQPREPQVYTLPPSREEMTKNQVSLTCLVKGFYPSDIAVEWESNGQPENNYKTTPPVLDSDGSFLYSKLTVDKSRWQQGNVFSCSVMHEALHNHYTQKSLSLSPGK light: MDIQMTQSPSSLSASVGDRVTITCRASQDVNTAVAWYQQKPGAPKLLIYSASFLYSGVPSRFSGSRSGTDFTLTISSLQPEDFATYYCQQHYTTPPTFGQGTKVEIKRTVAAPSVFIFPPSDEQLKSGTASVVCLLNNFYPREAKVQWKVDNALQSGNSQSVTEQDSKDSTYSLSSTLTLSKADYEKHKVYACEVTHQGLSSPVTKSFNRGEC | 0.048 | 94 |  |  | 
5 | Conjugate 14: D04-Y180/F404/K42/E161-LP12 (antibody, human IgG1, kappa, pAMF at K42 and E161 (printed * in the sequence), linked to LP12; pAMF at Y180 and F404 (printed * in the sequence), linked to LP12) heavy: MEVQLVESGGGLVQPGGSLRLSCAASGFNISDYDIHWVRQAPGKGLEWVGGIDPADGSTDYADSVKGRFTISADTSKNTAYLQMNSLRAEDTAVYYCARDYGVYDYWGQGTLVTVSSASTKGPSVFPLAPSSKSTSGGTAALGCLVKDYFPEPVTVSWNSGALTSGVHTFPAVLQSSGLSLSSVVTVPSSSLGTQTYICNVNHKPSNTKVDKKVEPKSCDKTHTCPPCPAPELLGGPSVFLFPPKPKDTLMISRTPEVTCVVVDVSHEDPEVKFNWYVDGVEVHNAKTKPREEQYNSTYRVVSVLTVLHQDWLNGKEYKCKVSNKALPAPIEKTISKAKGQPREPQVYTLPPSREEMTKNQVSLTCLVKGFYPSDIAVEWESNGQPENNYKTTPPVLDSDGSFLYSKLTVDKSRWQQGNVFSCSVMHEALHNHYTQKSLSLSPGK light: MDIQMTQSPSSLSASVGDRVTITCRASQDVNTAVAWYQQKPGAPKLLIYSASFLYSGVPSRFSGSRSGTDFTLTISSLQPEDFATYYCQQHYTTPPTFGQGTKVEIKRTVAAPSVFIFPPSDEQLKSGTASVVCLLNNFYPREAKVQWKVDNALQSGNSQSVTEQDSKDSTYSLSSTLTLSKADYEKHKVYACEVTHQGLSSPVTKSFNRGEC |  |  | 0.036 | 56 | 
6 | Conjugate 4: D04-Y180/F404/K42/E161-LP1 (antibody, human IgG1, kappa, pAMF at K42 and E161 (printed * in the sequence), linked to LP1; pAMF at Y180 and F404 (printed * in the sequence), linked to LP1) heavy: MEVQLVESGGGLVQPGGSLRLSCAASGFNISDYDIHWVRQAPGKGLEWVGGIDPADGSTDYADSVKGRFTISADTSKNTAYLQMNSLRAEDTAVYYCARDYGVYDYWGQGTLVTVSSASTKGPSVFPLAPSSKSTSGGTAALGCLVKDYFPEPVTVSWNSGALTSGVHTFPAVLQSSGLSLSSVVTVPSSSLGTQTYICNVNHKPSNTKVDKKVEPKSCDKTHTCPPCPAPELLGGPSVFLFPPKPKDTLMISRTPEVTCVVVDVSHEDPEVKFNWYVDGVEVHNAKTKPREEQYNSTYRVVSVLTVLHQDWLNGKEYKCKVSNKALPAPIEKTISKAKGQPREPQVYTLPPSREEMTKNQVSLTCLVKGFYPSDIAVEWESNGQPENNYKTTPPVLDSDGSFLYSKLTVDKSRWQQGNVFSCSVMHEALHNHYTQKSLSLSPGK light: MDIQMTQSPSSLSASVGDRVTITCRASQDVNTAVAWYQQKPGAPKLLIYSASFLYSGVPSRFSGSRSGTDFTLTISSLQPEDFATYYCQQHYTTPPTFGQGTKVEIKRTVAAPSVFIFPPSDEQLKSGTASVVCLLNNFYPREAKVQWKVDNALQSGNSQSVTEQDSKDSTYSLSSTLTLSKADYEKHKVYACEVTHQGLSSPVTKSFNRGEC |  |  | 0.023 | 58 | NTERA-2 cell killing EC50 [3]: 0.05 nM; NTERA-2 cell killing Span (%) [3]: 65%; NTERA-2 cell killing EC50 [4]: 0.067 nM; NTERA-2 cell killing Span (%) [4]: 60%
